The target in experiment [1] is T1, full-length Flag-CHD4 (chromodomain helicase DNA-binding protein 4) (UniProt Q14839 1-1912).
T1 construct: FLAG-tagged, made in recombinant baculovirus infected Sf9 cells and purified on Flag-agarose; also called purified CHD4; full-length CHD4
Briefly: peptide pull-down: 100 nM purified Flag-CHD4 with 1 µg N-biotinylated peptide, anti-Flag immunoblot. (In general: Immunoblotting shows a protein as a band on a membrane.)

Experiment [2] addresses T2, CHD4 (endogenous, in PEL cells BC3 / BCBL-1) (UniProt Q14839 1-1912).
T2 construct: Cellular protein in treated cells and their lysates
Briefly: streptavidin pull-down from BC3 cells incubated with 10 µM biotinylated peptide, anti-CHD4 immunoblot.

The target of experiment [3] is T1, full-length Flag-CHD4 (chromodomain …). Briefly: BLI, biotinylated peptide on streptavidin tips, full-length Flag-CHD4 at 0-50 nM in solution. A general note: In BLI a coated tip is dipped into the sample, and binding shifts an interference pattern.
Experiment [4] has as its target T3, 1531-1912.
T3 construct: Member of the group m7; The map draws it with CHDCT2 only, without PHD; also called Flag-CHD4 deletion protein 1531-1912
Briefly: ELISA, plate coated with 1 µM biotinylated VGN73, Flag-CHD4 deletion protein titrated, OD 450 nm. A general note: ELISA stands for enzyme-linked immunosorbent assay.

Experiment [5] addresses T4, 685-1245.
T4 construct: Member of the group m7; The map draws it with the ATPase and C-terminal helicase boxes only, without PHD; also called Flag-CHD4 deletion protein 685-1245
The experiment is described as above.

Experiment [6] concerns the target T5, 1250-1912.
T5 construct: Member of the group m7; The map draws it with the two DUF domains and CHDCT2, without PHD; also called Flag-CHD4 deletion protein 1250-1912
The description is as above.

The target of experiment [7] is T1, full-length Flag-CHD4 (chromodomain …). Briefly: ELISA, plate coated with 1 µM biotinylated VGN73, Flag-CHD4 protein titrated, OD 450 nm.

Non-standard residues stand in square brackets, D forms with d. No end group written: not given here. *: point of attachment. Biotin = O=C1N[C@H]2[C@H](CS[C@H]2CCCCC(=O)*)N1; Orn = NCCC[C@H](N)C(=O)O; βAla = NCCC(=O)O

T1 sequence (Q14839 whole entry): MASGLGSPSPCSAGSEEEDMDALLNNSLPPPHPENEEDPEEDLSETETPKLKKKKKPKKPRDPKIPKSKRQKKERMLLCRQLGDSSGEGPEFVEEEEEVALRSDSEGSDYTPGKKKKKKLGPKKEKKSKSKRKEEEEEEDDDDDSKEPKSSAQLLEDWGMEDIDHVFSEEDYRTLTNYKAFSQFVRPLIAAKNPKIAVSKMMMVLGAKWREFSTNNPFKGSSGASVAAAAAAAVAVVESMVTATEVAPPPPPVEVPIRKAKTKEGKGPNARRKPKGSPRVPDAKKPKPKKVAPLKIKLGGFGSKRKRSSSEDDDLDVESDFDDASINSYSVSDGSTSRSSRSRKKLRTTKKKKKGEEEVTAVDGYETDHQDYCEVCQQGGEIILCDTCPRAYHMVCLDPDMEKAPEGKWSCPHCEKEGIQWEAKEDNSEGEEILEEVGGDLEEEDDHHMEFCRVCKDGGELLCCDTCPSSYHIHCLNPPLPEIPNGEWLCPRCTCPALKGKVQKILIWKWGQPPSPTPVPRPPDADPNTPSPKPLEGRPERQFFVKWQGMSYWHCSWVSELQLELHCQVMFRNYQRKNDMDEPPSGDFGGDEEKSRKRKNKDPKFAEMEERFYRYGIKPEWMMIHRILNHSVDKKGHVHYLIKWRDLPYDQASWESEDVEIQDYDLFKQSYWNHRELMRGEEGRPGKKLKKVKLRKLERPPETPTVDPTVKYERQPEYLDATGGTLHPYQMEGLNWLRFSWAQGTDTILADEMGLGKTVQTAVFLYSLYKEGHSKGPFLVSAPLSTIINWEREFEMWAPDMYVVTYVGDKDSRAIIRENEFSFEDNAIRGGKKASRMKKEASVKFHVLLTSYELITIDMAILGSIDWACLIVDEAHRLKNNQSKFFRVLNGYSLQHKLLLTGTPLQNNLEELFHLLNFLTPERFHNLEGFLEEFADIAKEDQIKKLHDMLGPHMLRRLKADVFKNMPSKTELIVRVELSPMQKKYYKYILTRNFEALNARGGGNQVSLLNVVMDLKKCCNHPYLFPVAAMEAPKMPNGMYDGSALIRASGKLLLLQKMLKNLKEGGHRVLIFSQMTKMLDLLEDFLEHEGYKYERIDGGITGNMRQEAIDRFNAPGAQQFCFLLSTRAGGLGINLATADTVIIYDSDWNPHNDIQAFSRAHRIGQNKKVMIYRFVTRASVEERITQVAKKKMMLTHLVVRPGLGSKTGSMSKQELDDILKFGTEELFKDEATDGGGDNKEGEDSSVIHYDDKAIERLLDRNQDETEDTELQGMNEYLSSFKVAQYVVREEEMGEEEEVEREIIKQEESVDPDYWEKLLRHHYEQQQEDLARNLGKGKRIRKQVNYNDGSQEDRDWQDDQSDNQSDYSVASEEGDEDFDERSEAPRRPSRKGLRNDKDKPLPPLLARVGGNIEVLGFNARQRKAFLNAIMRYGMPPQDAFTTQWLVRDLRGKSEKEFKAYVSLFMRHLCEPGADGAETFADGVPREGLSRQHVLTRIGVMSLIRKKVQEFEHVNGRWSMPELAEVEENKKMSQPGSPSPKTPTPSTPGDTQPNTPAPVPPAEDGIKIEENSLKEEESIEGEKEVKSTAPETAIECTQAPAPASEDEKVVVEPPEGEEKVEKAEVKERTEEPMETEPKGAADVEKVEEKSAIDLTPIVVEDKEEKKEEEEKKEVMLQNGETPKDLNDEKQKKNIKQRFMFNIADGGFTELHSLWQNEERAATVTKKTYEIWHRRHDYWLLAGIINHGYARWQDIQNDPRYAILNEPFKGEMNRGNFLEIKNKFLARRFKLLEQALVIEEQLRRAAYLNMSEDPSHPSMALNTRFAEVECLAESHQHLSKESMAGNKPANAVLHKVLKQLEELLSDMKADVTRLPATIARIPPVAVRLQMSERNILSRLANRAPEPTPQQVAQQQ
T2 sequence (Q14839 whole entry): as above

B1: #4 (peptide)
peptide: Biotin-EDEMEVDYPVVSTHEQIASSPPG
notes: also called N-Biotin LANA peptide 4; KSHV LANA 906-928
As to B1, the binding result in experiment [1] is “no binding (tested: 1 µg peptide with 100 nM CHD4)”.

B2: #3 (peptide)
peptide: Biotin-ETVEEPIILHGSSSEDEMEVDYP
notes: also called N-Biotin LANA peptide 3; KSHV LANA 892-914
For B2, the binding result in experiment [1] is “no binding (tested: 1 µg peptide with 100 nM CHD4)”.

B3: #1 (peptide)
peptide: Biotin-EQELEEVEEQEEQELEEVEEQEQ
notes: also called N-Biotin LANA peptide 1; KSHV LANA 872-894 as printed
For B3, the binding result in experiment [1] is listed as “no binding (tested: 1 µg peptide with 100 nM CHD4)”.

Turning to [dR]KKRR[Orn]RRR[βAla]AKHAVISAGNDPYGLKK (also: N-terminal biotin only in BLI form) [VGN73 mutant peptide (TAT-VGN73 mutant fusion peptide)], the results for the binding result in experiment [2] and in experiment [3] were “no binding (tested: 10 µM)” and “no binding (tested: 50 nM)”, respectively.

B4: #2 (peptide)
peptide: Biotin-EEVEEQEQQGVEQQEQETVEE
notes: also called N-Biotin LANA peptide 2; KSHV LANA 876-896 as printed
With B4, the binding result in experiment [1] was “no binding (tested: 1 µg peptide with 100 nM CHD4)”.

B5: modified TAT peptide (peptide)
peptide: RKKRRXRRRA
modifications: d-Arg at position 1; ornithine (ORN) at position 6; beta-alanine at position 10; N-terminal biotin in BLI
notes: also called TAT alone; biotinylated TAT peptide
Turning to B5, the binding result in experiment [2] is listed as “no binding (tested: 10 µM)”; in experiment [3] it was “no binding (tested: 50 nM)”.

B6: VGN73 (TAT-VGN73 fusion peptide) (peptide)
peptide: [dR]KKRR[Orn]RRR[βAla]WKHAVIFWGNDPYGLKK
modifications: also: N-terminal biotin only in ELISA, BLI and pull-down forms
notes: Used without biotin in cell treatment assays; also called LANA peptide; cell-penetrating LANA peptide
For B6, the binding result in experiment [4], in experiment [5] and in experiment [6] was “no binding (tested: 100 nM)” throughout. In addition, the “EC50 (read off the curve)” value in experiment [7] is approximately 10 nM.

B7: #8 (peptide)
peptide: Biotin-QPPVPYRQIDDCPAKARPQHIFYR
notes: also called N-Biotin LANA peptide 8; KSHV LANA 977-1000
Regarding B7, in experiment [1], the binding result is “no binding (tested: 1 µg peptide with 100 nM CHD4)”.

B8: #5 (peptide)
peptide: Biotin-IASSPPGDNTPDDDPQPGPSREYR
notes: also called N-Biotin LANA peptide 5; KSHV LANA 922-945
With B8, the binding result in experiment [1] was “no binding (tested: 1 µg peptide with 100 nM CHD4)”.

Usually EC50 (read off the curve) stands for the concentration needed to bring the measured effect to its halfway point.
